From patent US20050031613A1

Tests used:
[1] = target: soluble hFcγRIIIa(F) (human) (UniProt P08637); experiment: SPR, BIAcore 2000; shFcγRIIIa captured by anti-His antibody on CM5 chip; KA from the equilibrium value of the binding
[2] = target: soluble hFcγRIIIa(V) (human) (UniProt P08637); experiment: SPR, BIAcore 2000; shFcγRIIIa captured by anti-His antibody on CM5 chip, antibody in flow (0.625 to 20 µg/ml)
[3] = target: soluble hFcγRIIIa(V) (human) (UniProt P08637); experiment: SPR, BIAcore 2000; end of the range tied to this antibody by Table 3 (0.48/0.28)

Ka [1]: 2.8e+06 M⁻¹ | Ka [2]: 4.8e+06 M⁻¹ | koff [2]: 0.0071 s⁻¹ | kon [2]: 34000 M⁻¹ s⁻¹ | fold higher KA for shFcγRIIIa(V) than for shFcγRIIIa(F) [3]: 2 to 3 times
Substance: Rituxan™ (antibody)
